Data taken from patent US20040071707A1, “Modulation of cell growth” (priority 2000, published 2004).

B1: K2P-PMSF: proteolytically inactivated K2P (protease domain inactivated with PMSF) (protein)
chain: SYQVICRDEKTQMIYQQHQSWLRPVLRSNRVEYCWCNSGRAQCHSVPVKSCSEPRCFNGGTCQQALYFSDFVCQCPEGFAGKCCEIDTRATCYEDQGISYRGTWSTAESGAECTNWNSSALAQKPYSGRRPDAIRLGLGNHNYCRNPDRDSKPWCYVFKAGKYSSEFCSTPACSEGNSDCYFGNGSAYRGTHSLTESGASCLPWNSMILIGKVYTAQNPSAQALGLGKHNYCRNPDGDAKPWCHVLKNRRLTWEYCDVPSCSTCGLRQYSQPQFRIKGGLFADIASHPWQAAIFAKHRRSPGERFLCGGILISSCWILSAAHCFQERFPPHHLTVILGRTYRVVPGEEEQKFEVEKYIVHKEFDDDTYDNDIALLQLKSDSSRCAQESSVVRTVCLPPADLQLPDWTECELSGYGKHEALSPFYSERLKEAHVRLYPSSRCTSQHLLNRTVTDNMLCAGDTRSGGPQANLHDACQGDSGGPLVCLNDGRMTLVGIISWGLGCGQKDVPGVYTKVTNYLDWIRDNMRP
B2: rsctPA: Recombinant single chain tPA (protein)
chain: B1 chain
B3: kringle 2: kringle 2 domain of tPA purified from K2P by limited elastase digestion and lysine-Sepharose (protein)
chain: CYFGNGSAYRGTHSLTESGASCLPWNSMILIGKVYTAQNPSAQALGLGKHNYCRNPDGDAKPWCHVLKNRRLTWEYCDVPSC

Tests used:
[1] = tested on: HUVEC; experiment: In vitro endothelial cell proliferation assay; format: cell-based, Human; conditions: for bFGF induced EC growth: 10 ng/mL bFGF, non-toxic doses (<40 μg/mL) for K2P fragments; for effect on basal HUVEC/EC growth (substance alone): M199 with 2% FBS, 4 days, colorimetric
Description: Human umbilical vein endothelial cells (HUVEC) were purchased from Clonetics or isolated from umbilical vein cords by mild collagenase treatment as described and cultured in M199 with Earle's salts (Sigma) with 20% heat inactivated fetal bovine serum (Sigma), 100 IU/mL penicillin 100 μg/mL streptomycin (Gibco), 250 ng/mL fungizone (Gibco), 2 mM glutamine (Gibco), 5 IU/mL heparin (Sigma) and 50 μg/mL ECGS (Technoclone, Vienna, Austria). Human vascular smooth muscle cells (HVSMC) were isolated as described.
3×10^3 cells were plated in 96-well plates and allowed to attach overnight. Growth was arrested by incubation with 100 μL reduced growth medium (M199 with 2% FBS) for 24 h. Thereafter anti-tPA antibodies and other reagents were added to wells. K2P (Reteplase), anti-kringle 2 (7VPA) and anti-finger/EGF antibodies (3VPA and 6VPA) were a gift from Technoclone, Vienna, Austria. Anti-kringle 1 (PAM-2), anti-kringle 2 (ESP1) and anti-protease (374B and ESP2) antibodies were purchased from American Diagnostica, Alpha Labs, UK. D-mannitol and LY294002 were obtained from Sigma. VEGF121 and bFGF were purchased from R&D Systems Inc., UK. Recombinant single chain tPA (rsctPA) was obtained from Boehringher Ingelheim. The mutant alatPA was kindly provided by Prof. Roger Lijnen (Center for Molecular and Vascular Biology, Leuven, Belgium). Aprotinin was purchased from Boehringer Mannheim. The tPA peptides (tPA I and tPA II) corresponding to residues 7-17 and 15-26 respectively were synthesized by the Clinical Sciences Centre peptide synthesis facility at Hammersmith and the ICRF peptide unit. Rp-cAMPS and Lavendustin A were obtained from Calbiochem, UK. After 4 days of incubation cell number was quantified colorimetrically by the addition of 20 μL CellTiter 96 AQueous One Solution Cell Proliferation Assay (Promega) at 492 nm and 620 nm reference filter. Background absorbance was determined with substrate alone and subtracted from all wells.
HUVEC were plated at 1×10^5 cells in 12 well plates overnight. Medium was replaced with reduced growth medium overnight followed by addition of anti-K2 antibody. Control wells contained M199 and 2% FBS alone. After 3 days incubation cells were counted in a hemocytometer.

[2] = tested on: HVSMC; experiment: HVSMC growth (proliferation assay); format: cell-based, Human
Description: (A and B). HUVEC or HVSMC cultures were incubated with increasing concentrations of PMSF inactivated K2P (K2P-PMSF) or control treated K2P either in the absence (A) or presence (B) of 10 ng/mL bFGF at the concentrations indicated. Angiostatin was included as a positive control for inhibition of bFGF mediated cell growth. HUVEC results represent mean of at least three independent experiments with three different batches of HUVEC. Experiments with HVSMC were repeated twice. (C and D). HUVEC were treated with 100 μg/mL K2P-PMSF and increasing concentrations of either anti-kringle 2 antibody, 7VPA (C) or rsctPA (D) for four days as indicated. Control wells contained M199 and 2% FBS alone. Data represent mean±SE of duplicate experiments with two different batches of HUVEC. […]
3×10^3 cells were plated in 96-well plates and allowed to attach overnight. […] After 4 days of incubation cell number was quantified colorimetrically by the addition of 20 μL CellTiter 96 AQueous One Solution Cell Proliferation Assay (Promega) at 492 nm and 620 nm reference filter. Background absorbance was determined with substrate alone and subtracted from all wells.

Molecule	bFGF induced EC growth [1]	concentration giving 50% inhibition ([1]; HUVEC growth, bFGF 10 ng/mL (FIG. 4B)) [µg/mL]	effect on basal HUVEC/EC growth (substance alone) [1]	HVSMC growth in the presence of bFGF ([2]; 10 ng/mL bFGF)	basal HVSMC growth, % of control ([2]; highest concentration used (100 μg/mL))	VEGF stimulated HUVEC growth ([1]; 10 ng/mL VEGF)
B1	completely inhibited	30	inhibited	No inhibition	65 % of control	
B2			neither rsctPA nor alatPA could stimulate EC growth			
B3	significantly inhibited		significantly inhibited			significantly inhibited
